Assay results: the supplement of paper PMC10065799, “High-throughput profiling of sequence recognition by tyrosine kinases and SH2 domains using bacterial peptide display” (eLife, 2023)
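For SH2 binding enrichment of the phosphorylated peptide, bacterial display in this document: peptide library displayed on the E. coli surface as eCPX fusions, selected cells deep-sequenced, score is each peptide's frequency after selection divided by its frequency in the input.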

What follows are sequences tested against c-Src SH2 (assay: SH2 binding enrichment of the phosphorylated peptide, bacterial display (enrichment ratio); higher = better substrate or ligand; peptides without Tyr show the background).
For FSDPDYLAAVD [GLB1_Y154_S149F], the SH2 binding enrichment was 0.417.
TLRETYGEMAD [ALB_Y108] was tested, and the SH2 binding enrichment was 0.91.
RSRSSYTHSLN [MYCT1_Y116_G119S] gave an SH2 binding enrichment of 0.435.
DQLVKHGVNPG [TMPO_Y127_Y127H] showed an SH2 binding enrichment of 0.457.
With LVPPRYARSEI [PKP2_Y194] the SH2 binding enrichment was 0.538.
In the case of STGSRYQPLAS [NCAPD2_Y1325], the SH2 binding enrichment is reported as 0.486.
EREYKYDAHNY [OAT_Y50_G51D] gave an SH2 binding enrichment of 0.703.
Sequence PHMQTYEVDLN [SDHB_Y61] has an SH2 binding enrichment of 0.874.
Work on EILTQYEAMAS [GFAP_Y242_R239L] yielded an SH2 binding enrichment of 2.84.
Work on LITSVYGCSRQ [TMPRSS6_Y290] yielded an SH2 binding enrichment of 0.511.
Sequence GRVYVYHLSEQ [ITGAE_Y551_R552H] has an SH2 binding enrichment of 0.907.
Sequence CGTPDYIDPEI [PRKCG_Y521_A523D] has an SH2 binding enrichment of 0.461.
SKGFAYVHFDS [PABPC5_Y149_YF] showed an SH2 binding enrichment of 1.96.
QLCVSYPGGFT [PROS1_Y259_N258S_YF] was tested, and the SH2 binding enrichment was 0.535.
With WRPFGYPCRRR [BCS1L_Y181_R183C] the SH2 binding enrichment was 0.435.
SGDDGYAKDAQ [TENM4_Y1530_K1535Q] gave an SH2 binding enrichment of 0.572.
For ALWFIYSHTRS [ENG_Y614_YF], the SH2 binding enrichment was 0.552.
Work on SGADSYEMEED [EGFR_Y316_C311S] yielded an SH2 binding enrichment of 0.728.
NFFDTYIKTCL [IQGAP2_Y1445_YF] was tested, and the SH2 binding enrichment was 0.528.
With PYYTSYPPSPD [GDAP2_Y491] the SH2 binding enrichment was 1.28.
CTTIRYNFMCN [TP53_Y234_H233R_YF] was tested, and the SH2 binding enrichment was 1.65.
With LAAAGYDVEKN [H1-3_Y72] the SH2 binding enrichment was 0.484.
Work on AKNKDYMSFIR [GNE_Y197_I200F] yielded an SH2 binding enrichment of 0.754.
SLIERYEPSET [PLCD1_Y258] showed an SH2 binding enrichment of 0.759.
Work on KSEFAYEIFDK [MYOM2_Y1024_L1022F] yielded an SH2 binding enrichment of 1.08.
ELSDGYWVVSN [TPP1_Y459_A454E] was tested, and the SH2 binding enrichment was 7.16.
DVCKNYAKAKD [ALB_Y343_E345K] gave an SH2 binding enrichment of 0.559.
With GDEAIYATVAG [NRTKtide_2018] the SH2 binding enrichment was 0.612.
RFLRGYRQFAF [HLA-A_Y137_D140Y_YF] gave an SH2 binding enrichment of 0.412.

What follows are sequences tested against SHP2-C SH2 in the same assay as above.
FSDPDYLAAVD [GLB1_Y154_S149F] showed an SH2 binding enrichment of 0.551.
Sequence TLRETYGEMAD [ALB_Y108] has an SH2 binding enrichment of 0.579.
RSRSSYTHSLN [MYCT1_Y116_G119S] was tested, and the SH2 binding enrichment was 0.348.
DQLVKHGVNPG [TMPO_Y127_Y127H] showed an SH2 binding enrichment of 0.702.
For LVPPRYARSEI [PKP2_Y194], the SH2 binding enrichment was 0.787.
Sequence STGSRYQPLAS [NCAPD2_Y1325] has an SH2 binding enrichment of 0.651.
In the case of EREYKYDAHNY [OAT_Y50_G51D], the SH2 binding enrichment is reported as 0.74.
PHMQTYEVDLN [SDHB_Y61] showed an SH2 binding enrichment of 0.716.
In the case of EILTQYEAMAS [GFAP_Y242_R239L], the SH2 binding enrichment is reported as 0.638.
For LITSVYGCSRQ [TMPRSS6_Y290], the SH2 binding enrichment was 0.628.
Sequence GRVYVYHLSEQ [ITGAE_Y551_R552H] has an SH2 binding enrichment of 6.94.
Sequence CGTPDYIDPEI [PRKCG_Y521_A523D] has an SH2 binding enrichment of 0.52.
Sequence SKGFAYVHFDS [PABPC5_Y149_YF] has an SH2 binding enrichment of 1.29.
QLCVSYPGGFT [PROS1_Y259_N258S_YF] was tested, and the SH2 binding enrichment was 0.687.
With WRPFGYPCRRR [BCS1L_Y181_R183C] the SH2 binding enrichment was 0.488.
Work on SGDDGYAKDAQ [TENM4_Y1530_K1535Q] yielded an SH2 binding enrichment of 0.769.
ALWFIYSHTRS [ENG_Y614_YF] gave an SH2 binding enrichment of 0.81.
Sequence SGADSYEMEED [EGFR_Y316_C311S] has an SH2 binding enrichment of 0.701.
With NFFDTYIKTCL [IQGAP2_Y1445_YF] the SH2 binding enrichment was 0.752.
PYYTSYPPSPD [GDAP2_Y491] showed an SH2 binding enrichment of 1.01.
CTTIRYNFMCN [TP53_Y234_H233R_YF] gave an SH2 binding enrichment of 1.82.
LAAAGYDVEKN [H1-3_Y72] showed an SH2 binding enrichment of 0.791.
Work on AKNKDYMSFIR [GNE_Y197_I200F] yielded an SH2 binding enrichment of 1.23.
In the case of SLIERYEPSET [PLCD1_Y258], the SH2 binding enrichment is reported as 0.62.
KSEFAYEIFDK [MYOM2_Y1024_L1022F] showed an SH2 binding enrichment of 0.63.
Sequence ELSDGYWVVSN [TPP1_Y459_A454E] has an SH2 binding enrichment of 0.616.
DVCKNYAKAKD [ALB_Y343_E345K] was tested, and the SH2 binding enrichment was 0.956.
GDEAIYATVAG [NRTKtide_2018] gave an SH2 binding enrichment of 0.812.
RFLRGYRQFAF [HLA-A_Y137_D140Y_YF] showed an SH2 binding enrichment of 0.521.

Each sequence was assayed against Grb2 SH2 (UniProt P62993) in the same assay as above.
Grb2 SH2, sequence (P62993 whole entry, looked up): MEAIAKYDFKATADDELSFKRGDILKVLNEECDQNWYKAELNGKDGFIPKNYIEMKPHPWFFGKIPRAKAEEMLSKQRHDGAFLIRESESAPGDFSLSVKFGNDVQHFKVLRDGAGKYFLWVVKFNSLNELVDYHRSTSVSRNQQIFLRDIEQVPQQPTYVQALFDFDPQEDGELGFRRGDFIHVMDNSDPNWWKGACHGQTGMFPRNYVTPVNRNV
FSDPDYLAAVD [GLB1_Y154_S149F] gave an SH2 binding enrichment of 0.746.
In the case of TLRETYGEMAD [ALB_Y108], the SH2 binding enrichment is reported as 1.11.
RSRSSYTHSLN [MYCT1_Y116_G119S] gave an SH2 binding enrichment of 0.786.
For DQLVKHGVNPG [TMPO_Y127_Y127H], the SH2 binding enrichment was 0.669.
Sequence LVPPRYARSEI [PKP2_Y194] has an SH2 binding enrichment of 0.771.
Work on STGSRYQPLAS [NCAPD2_Y1325] yielded an SH2 binding enrichment of 0.826.
Work on EREYKYDAHNY [OAT_Y50_G51D] yielded an SH2 binding enrichment of 0.781.
Work on PHMQTYEVDLN [SDHB_Y61] yielded an SH2 binding enrichment of 1.01.
EILTQYEAMAS [GFAP_Y242_R239L] gave an SH2 binding enrichment of 0.853.
For LITSVYGCSRQ [TMPRSS6_Y290], the SH2 binding enrichment was 0.863.
GRVYVYHLSEQ [ITGAE_Y551_R552H] showed an SH2 binding enrichment of 1.01.
For CGTPDYIDPEI [PRKCG_Y521_A523D], the SH2 binding enrichment was 0.814.
SKGFAYVHFDS [PABPC5_Y149_YF] showed an SH2 binding enrichment of 1.02.
Sequence QLCVSYPGGFT [PROS1_Y259_N258S_YF] has an SH2 binding enrichment of 0.711.
In the case of WRPFGYPCRRR [BCS1L_Y181_R183C], the SH2 binding enrichment is reported as 0.746.
SGDDGYAKDAQ [TENM4_Y1530_K1535Q] gave an SH2 binding enrichment of 0.979.
ALWFIYSHTRS [ENG_Y614_YF] showed an SH2 binding enrichment of 1.13.
For SGADSYEMEED [EGFR_Y316_C311S], the SH2 binding enrichment was 0.979.
For NFFDTYIKTCL [IQGAP2_Y1445_YF], the SH2 binding enrichment was 0.85.
PYYTSYPPSPD [GDAP2_Y491] showed an SH2 binding enrichment of 0.728.
CTTIRYNFMCN [TP53_Y234_H233R_YF] was tested, and the SH2 binding enrichment was 1.87.
LAAAGYDVEKN [H1-3_Y72] showed an SH2 binding enrichment of 0.723.
AKNKDYMSFIR [GNE_Y197_I200F] was tested, and the SH2 binding enrichment was 1.09.
SLIERYEPSET [PLCD1_Y258] was tested, and the SH2 binding enrichment was 1.
Work on KSEFAYEIFDK [MYOM2_Y1024_L1022F] yielded an SH2 binding enrichment of 0.613.
Sequence ELSDGYWVVSN [TPP1_Y459_A454E] has an SH2 binding enrichment of 0.636.
For DVCKNYAKAKD [ALB_Y343_E345K], the SH2 binding enrichment was 1.03.
GDEAIYATVAG [NRTKtide_2018] was tested, and the SH2 binding enrichment was 1.01.
With RFLRGYRQFAF [HLA-A_Y137_D140Y_YF] the SH2 binding enrichment was 0.895.

These sequences were tested on AncSZ (assay: phosphorylation enrichment, bacterial display (enrichment ratio); higher = better substrate or ligand; peptides without Tyr show the background).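 Also: 11-residue human phosphosite peptides and single-mutation variants displayed on the E. coli surface, counted by deep sequencing, each peptide's frequency after selection divided by its frequency in the unselected input library; frequency after pTyr selection over input frequency; kinase dosed for 20-30% of maximal phosphorylation in three min.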
With FSDPDYLAAVD [GLB1_Y154_S149F] the phosphorylation enrichment was 1.45.
Sequence TLRETYGEMAD [ALB_Y108] has a phosphorylation enrichment of 0.999.
Work on RSRSSYTHSLN [MYCT1_Y116_G119S] yielded a phosphorylation enrichment of 0.832.
In the case of DQLVKHGVNPG [TMPO_Y127_Y127H], the phosphorylation enrichment is reported as 0.47.
With LVPPRYARSEI [PKP2_Y194] the phosphorylation enrichment was 1.26.
STGSRYQPLAS [NCAPD2_Y1325] showed a phosphorylation enrichment of 0.474.
EREYKYDAHNY [OAT_Y50_G51D] gave a phosphorylation enrichment of 0.757.
With PHMQTYEVDLN [SDHB_Y61] the phosphorylation enrichment was 1.17.
EILTQYEAMAS [GFAP_Y242_R239L] showed a phosphorylation enrichment of 1.02.
With LITSVYGCSRQ [TMPRSS6_Y290] the phosphorylation enrichment was 1.39.
Work on GRVYVYHLSEQ [ITGAE_Y551_R552H] yielded a phosphorylation enrichment of 1.03.
Work on CGTPDYIDPEI [PRKCG_Y521_A523D] yielded a phosphorylation enrichment of 1.58.
SKGFAYVHFDS [PABPC5_Y149_YF] gave a phosphorylation enrichment of 0.814.
In the case of QLCVSYPGGFT [PROS1_Y259_N258S_YF], the phosphorylation enrichment is reported as 1.12.
In the case of WRPFGYPCRRR [BCS1L_Y181_R183C], the phosphorylation enrichment is reported as 0.622.
SGDDGYAKDAQ [TENM4_Y1530_K1535Q] was tested, and the phosphorylation enrichment was 0.818.
ALWFIYSHTRS [ENG_Y614_YF] gave a phosphorylation enrichment of 1.01.
For SGADSYEMEED [EGFR_Y316_C311S], the phosphorylation enrichment was 1.29.
NFFDTYIKTCL [IQGAP2_Y1445_YF] showed a phosphorylation enrichment of 1.3.
PYYTSYPPSPD [GDAP2_Y491] showed a phosphorylation enrichment of 1.38.
In the case of CTTIRYNFMCN [TP53_Y234_H233R_YF], the phosphorylation enrichment is reported as 0.948.
In the case of LAAAGYDVEKN [H1-3_Y72], the phosphorylation enrichment is reported as 0.909.
AKNKDYMSFIR [GNE_Y197_I200F] gave a phosphorylation enrichment of 0.606.
SLIERYEPSET [PLCD1_Y258] was tested, and the phosphorylation enrichment was 1.07.
Work on KSEFAYEIFDK [MYOM2_Y1024_L1022F] yielded a phosphorylation enrichment of 1.34.
Work on ELSDGYWVVSN [TPP1_Y459_A454E] yielded a phosphorylation enrichment of 1.39.
Sequence DVCKNYAKAKD [ALB_Y343_E345K] has a phosphorylation enrichment of 0.71.
GDEAIYATVAG [NRTKtide_2018] showed a phosphorylation enrichment of 1.59.
For RFLRGYRQFAF [HLA-A_Y137_D140Y_YF], the phosphorylation enrichment was 1.19.
